Assay results published in patent publication US20170066816A1 (University of Texas, published 2017).

Target: T1, pertussis toxin protein (Bordetella pertussis, UniProt P04977 35-269; P04978 28-226; P04979 29-227; P0A3R5 43-152; P04981 35-133)
T1 construct: also called PTx; PT
Test: BIAcore

Binder	kon
murine m11E6 antibody (antibody, V domains shown, also called parental murine 11E6 antibody) VH: EVKVVESGGGLVQPGGSLRLSCTTSGFTFTDYYVSWVRQPPGKALEWLGFIRNKVNGYTTEFSSSVKGRFTISRDNSQSILYLQMNTLRVEDSATYYCARVSYYGRGWYFDYWGQGTTLTVSS VL: DIVMTQSTSSLSASLGDRVTISCRASQDIDNYLSWFQQKPDGTVKLLIYYTSRLHSGVPSRFSGSGSGTDYSLTISSLDQEDIATYFCQQGNTFPWTFGGGTKLEIK	80000 M⁻¹ s⁻¹
murine m1B7 antibody (antibody, V domains shown, also called parental murine 1B7 antibody) VH: QVQLQQPGSELVRPGASVKLSCKASGYKFTSYWMHWVKQRPGQGLEWIGNIFPGSGSTNYDEKFNSKATLTVDTSSNTAYMQLSSLTSEDSAVYYCTRWLSGAYFDYWGQGTTLTVSS VL: QIVLTQSPALMSASPGEKVTMTCSASSSVSFMYWYQQKPRSSPKPWIYLTSNLPSGVPARFSGSGSGTSYSLTISSMEAEDAATYYCQQWSSHPPTFGSGTKLEIK	170000 M⁻¹ s⁻¹
chimeric 1B7 antibody (antibody, V domains shown, also called ch1B7) VH: QVQLQQPGSELVRPGASVKLSCKASGYKFTSYWMHWVKQRPGQGLEWIGNIFPGSGSTNYDEKFNSKATLTVDTSSNTAYMQLSSLTSEDSAVYYCTRWLSGAYFDYWGQGTTLTVSS VL: QIVLTQSPALMSASPGEKVTMTCSASSSVSFMYWYQQKPRSSPKPWIYLTSNLPSGVPARFSGSGSGTSYSLTISSMEAEDAATYYCQQWSSHPPTFGSGTKLEIK	150000 M⁻¹ s⁻¹
